# Target: Untagged Rps28a (S. cerevisiae, UniProt Q3E7X9 1-67)
# Test: SEC-MALS
# Chain of Untagged Rps28a (Q3E7X9 whole entry): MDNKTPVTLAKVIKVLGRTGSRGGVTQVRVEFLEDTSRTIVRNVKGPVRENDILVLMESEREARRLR
binder,measurement,value
"DDIDDPKYLPITQSLNITHLIHSATNSPSIN (peptide, UniProt P39998 201-231, looked up) [Edc3(201–231) lacking the His-GST tag]",stoichiometry N,1

# Source: PMC3814365 (Nucleic Acids Research, 2013)
